Test results reported in US20200317776A1 (published 2020).

How the values were obtained:
[1] = target: T1, human TREM2 Fc fusion (entire TREM2 ECD; only one Fc arm fused to TREM2) (human, UniProt Q9NZC2 19-174); assay: BLI, IgG, avid
T1 construct: also called huTREM2-Fc; recombinant hTREM2
T1 sequence: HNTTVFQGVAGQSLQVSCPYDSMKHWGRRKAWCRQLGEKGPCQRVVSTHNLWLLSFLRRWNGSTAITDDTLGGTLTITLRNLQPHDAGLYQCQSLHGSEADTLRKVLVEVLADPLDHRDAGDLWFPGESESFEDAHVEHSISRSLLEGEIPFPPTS
Procedure: Briefly, IgGs were loaded on-line onto AHQ sensors, Sensors were equilibrated off-line in assay buffer for 30 minutes and then monitored on-line for 60 seconds for baseline establishment. For avid binding measurement, sensors with loaded IgGs were exposed to 100 nM antigen (human or cynomolgus monkey TREM2 Fe fusion using the entire TREM2 ECD; only one Fc arm was fused to TREM2) for 3 minutes, afterwards they were transferred to assay buffer for 3 minutes for off-rate measurement. Monovalent binding measurements were obtained by loading human TREM2 Fc fusion antigens to AHQ sensor and followed by exposure to 100 nM TREM2 antibody Fab. Kinetics data were fit using a 1:1 binding model in the data analysis software provided by ForteBio. Assay was run at room temperature (25° C.).

[2] = target: T1, human TREM2 Fc fusion (entire TREM2 …); assay: BLI, Fab, monovalent
[3] = target: T2, cynomolgus monkey TREM2 Fc fusion (entire TREM2 ECD; only one Fc arm fused to TREM2) (cynomolgus monkey, UniProt Q9NZC2 19-174 (human entry)); assay: BLI, Fab, monovalent
T2 construct: also called cyno TREM2-Fc
T2 chain: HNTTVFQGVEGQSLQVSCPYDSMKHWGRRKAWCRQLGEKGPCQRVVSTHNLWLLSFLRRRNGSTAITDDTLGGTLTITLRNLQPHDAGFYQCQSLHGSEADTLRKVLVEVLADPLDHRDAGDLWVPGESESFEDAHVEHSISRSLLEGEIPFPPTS

[4] = target: T3, human TREM2 expressed on cells (human, UniProt Q9NZC2 19-230); assay: FACS, hTREM2 BW cells
T3 construct: BW5147.G.1.4 cells stably expressing human TREM2 together with Dap12, or endogenous TREM2 of primary human myeloid cells; also called huT2 BW; hTREM2 expressing cell line
T3 sequence: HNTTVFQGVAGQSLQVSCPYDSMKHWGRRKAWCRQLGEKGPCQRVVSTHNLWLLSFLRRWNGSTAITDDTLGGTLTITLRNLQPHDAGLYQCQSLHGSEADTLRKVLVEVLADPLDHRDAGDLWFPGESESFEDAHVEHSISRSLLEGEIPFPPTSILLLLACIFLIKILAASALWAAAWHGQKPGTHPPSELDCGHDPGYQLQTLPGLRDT
Text: To examine cell binding of affinity matured anti-TREM2 antibodies, both primary human monocyte derived dendritic cells and recombinant, human TREM2 expressing cells were utilized. For the latter, BW5147.G.1.4 (ATCC® TIB48™) and HEK293T cells stably expressing human TREM2 together with Dap12 using viral infection were established. For primary human monocyte derived dendritic cells, human monocytes were isolated from whole blood using RosetteSep Human monocyte enrichment cocktail (Stemcell technologies) and Ficoll centrifugation per manufacturer protocols. After lysing red blood cells with ACK lysing buffer, monocytes were resuspended in complete media (RPMI, 10% FBS, Pen/Strep, L-glutamine, HEPES, non-essential amino acid, Sodium pyruvate) with 100 ng/ml human GM-CSF (hu-GMCSF) and, human IL-4 (hu-IL-4) to differentiate dendritic cells for 6 days.
Cells were harvested by trypsinization (Hek293T) or scraping (BW and dendritic cells), washed in PBS, counted and plated on 96-well U bottom plates at […] cells/well. The plates were spun at 1,400 rpm for 3 minutes and primary TREM2 or control antibodies were added in FACS buffer (PBS+2% FBS) and incubated on ice for one hour. Cells were subsequently centrifuged as before and washed thrice with FACS buffer. Cells were then incubated with anti-human PE conjugated secondary antibody (BD Biosciences) in FACS buffer for 30 minutes on ice. Cells were again washed thrice with FACS buffer and analyzed on a BD FACS Canto or an Intellicyt Flow Cytometer. Binding was measured as mean fluorescence intensity in the APC channel.

[5] = target: human TREM2/DAP12 fusion protein (human, UniProt O43914 41-113, limits assumed); assay: cell-based or functional assay
human TREM2/DAP12 fusion protein, sequence (O43914 other isoform, or with tags, fused parts or gaps limits assumed): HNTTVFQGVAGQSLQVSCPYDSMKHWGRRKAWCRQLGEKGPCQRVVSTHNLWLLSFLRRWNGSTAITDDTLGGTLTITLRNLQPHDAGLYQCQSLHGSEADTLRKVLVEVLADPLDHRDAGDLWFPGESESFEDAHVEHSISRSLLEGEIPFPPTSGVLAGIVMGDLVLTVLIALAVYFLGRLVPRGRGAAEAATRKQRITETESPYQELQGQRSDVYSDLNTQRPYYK

Binder	Kd [1]	Kd [2]	Kd [3]	Kd [4]	Luciferase activation plate bound 33 nM IgG, FOC [5]	Luciferase activation soluble 10 nM IgG, FOC [5]
AL2p-7 (antibody, V domains shown, Fab and IgG formats under one id) VH: QVQLVQSGAEVKKPGSSVKVSCKASGYAFSLSWMNWVRQAPGQGLEWMGRIYPGDGDTNYAQKFRGRVTITADESTSTAYMELSSLRSEDTAVYYCARLLRNQPGESYAMDYWGQGTLVTVSS VL: GVVMTQTPLSLSVTPGQPASISCRSSQSLIHSNGYTYLHWYLQKPGQSPQLLIYKVSNRRSGVPDRFSGSGSGTDFTLKISRVEAEDVGVYYCSQSTRVPYTFGQGTKLEIK	0.427 nM	8.38 nM	8.95 nM	1.6 nM	18.9 FOC	2.35 FOC
AL2p-14 (antibody, V domains shown, Fab and IgG formats under one id) VH: QVQLVQSGAEVKKPGSSVKVSCKASGYAFSSHWMNWVRQAPGQGLEWMGRIYPGDGDTNYAQKFQGRVTITADESTSTAYMELSSLRSEDTAVYYCARLLRNQPGESYAMDYWGQGTLVTVSS VL: GVVMTQTPLSLSVTPGQPASISCRSSRSLVHSNGYTYLHWYLQKPGQSPQLLIYKVSNRFSGVPDRFSGSGSGTDFTLKISRVEAEDVGVYYCSQSTRVPYTFGQGTKLEIK	0.315 nM	4.74 nM	4.66 nM	2.1 nM	27.1 FOC	1.79 FOC
AL2p-20 (antibody, V domains shown, Fab and IgG formats under one id) VH: QVQLVQSGAEVKKPGSSVKVSCKASGYAFSSHWMNWVRQAPGQGLEWMGRIYPGDGDTNYARKFQGRVTITADESTSTAYMELSSLRSEDTAVYYCARLLRNQPGESYAMDYWGQGTLVTVSS VL: GVVMTQTPLSLSVTPGQPASISCRTSQSLVHSNGYTYLHWYLQKPGQSPQLLIYKVSNRVSGVPDRFSGSGSGTDFTLKISRVEAEDVGVYYCSQSTRVPYTFGQGTKLEIK	0.35 nM	4.73 nM	4.72 nM	1.2 nM	22.4 FOC	2.12 FOC
AL2p-19 (antibody, V domains shown, Fab and IgG formats under one id) VH: QVQLVQSGAEVKKPGSSVKVSCKASGYAFSSHWMNWVRQAPGQGLEWMGRIYPGDGDTNYARKFQGRVTITADESTSTAYMELSSLRSEDTAVYYCARLLRNQPGESYAMDYWGQGTLVTVSS VL: DVVMTQTPLSLSVTPGQPASISCRSSRSLVHSNGYTYLHWYLQKPGQSPQLLIYKVSNRVSGVPDRFSGSGSGTDFTLKISRVEAEDVGVYYCSQSTRVPYTFGQGTKLEIK	0.303 nM	4.02 nM	4.01 nM	1.4 nM	25.9 FOC	2.06 FOC
AL2p-17 (antibody, V domains shown, Fab and IgG formats under one id) VH: QVQLVQSGAEVKKPGSSVKVSCKASGYAFSSHWMNWVRQAPGQGLEWMGRIYPGDGDTNYAQKRQGRVTITADESTSTAYMELSSLRSEDTAVYYCARLLRNQPGESYAMDYWGQGTLVTVSS VL: DVVMTQTPLSLSVTPGQPASISCRSSRSLVHSNGYTYLHWYLQKPGQSPQLLIYKVSNRVSGVPDRFSGSGSGTDFTLKISRVEAEDVGVYYCSQSTRVPYTFGQGTKLEIK	0.255 nM	4.83 nM	4.62 nM	1.4 nM	23.8 FOC	2.13 FOC
AL2p-61 (antibody, IgG1, V domains shown) VH: QVQLVQSGAEVKKPGSSVKVSCKASGYAFSSQWMNWVRQAPGQGLEWMGRIYPGEGDTNYARKFQGRVTITADESTSTAYMELSSLRSEDTAVYYCARLLRNQPGESYAMDYWGQGTLVTVSS VL: GVVMTQTPLSLSVTPGQPASISCRSSQSLVHSNQYTYLHWYLQKPGQSPQLLIYKVSNRRSGVPDRFSGSGSGTDFTLKISRVEAEDVGVYYCSQSTRVPYTFGQGTKLEIK	–	3730 nM	3.84 nM	–	–	–
AL2p-11 (antibody, V domains shown, Fab and IgG formats under one id) VH: QVQLVQSGAEVKKPGSSVKVSCKASGYAFSSDWMNWVRQAPGQGLEWMGRIYPGDGDTNYARKFQGRVTITADESTSTAYMELSSLRSEDTAVYYCARLLRNQPGESYAMDYWGQGTLVTVSS VL: DVVMTQTPLSLSVTPGQPASISCRSSRSLVHSNGYTYLHWYLQKPGQSPQLLIYKVSNRVSGVPDRFSGSGSGTDFTLKISRVEAEDVGVYYCSQSTRVPYTFGQGTKLEIK	0.536 nM	9.83 nM	10.2 nM	2.4 nM	23.6 FOC	1.71 FOC
AL2p-10 (antibody, V domains shown, Fab and IgG formats under one id) VH: QVQLVQSGAEVKKPGSSVKVSCKASGYAFSSDWMNWVRQAPGQGLEWMGRIYPGDGDTNYAQKFQGRVTITADESTSTAYMELSSLRSEDTAVYYCARLLRNQPGESYAMDYWGQGTLVTVSS VL: GVVMTQTPLSLSVTPGQPASISCRSSQSLVHSNGYTYLHWYLQKPGQSPQLLIYKVSNRRSGVPDRFSGSGSGTDFTLKISRVEAEDVGVYYCSQSTRVPYTFGQGTKLEIK	0.835 nM	18.5 nM	27.7 nM	3.1 nM	4.63 FOC	1.6 FOC
AL2p-12 (antibody, V domains shown, Fab and IgG formats under one id) VH: QVQLVQSGAEVKKPGSSVKVSCKASGYAFSSHWMNWVRQAPGQGLEWMGRIYPGDGDTNYAHKFQGRVTITADESTSTAYMELSSLRSEDTAVYYCARLLRNQPGESYAMDYWGQGTLVTVSS VL: GVVMTQTPLSLSVTPGQPASISCRSSQSLVHSNGYTYLHWYLQKPGQSPQLLIYKVSNRRSGVPDRFSGSGSGTDFTLKISRVEAEDVGVYYCSQSTRVPYTFGQGTKLEIK	0.514 nM	5.86 nM	5.25 nM	1.8 nM	15.8 FOC	1.96 FOC
AL2p-13 (antibody, V domains shown, Fab and IgG formats under one id; also called AL22-13) VH: QVQLVQSGAEVKKPGSSVKVSCKASGYAFSSHWMNWVRQAPGQGLEWMGRIYPGDGDTNYAQKFKGRVTITADESTSTAYMELSSLRSEDTAVYYCARLLRNQPGESYAMDYWGQGTLVTVSS VL: GVVMTQTPLSLSVTPGQPASISCRSSQSLIHSNGYTYLHWYLQKPGQSPQLLIYKVSNRRSGVPDRFSGSGSGTDFTLKISRVEAEDVGVYYCSQSTRVPYTFGQGTKLEIK	0.34 nM	4.8 nM	4.93 nM	1.5 nM	16.5 FOC	2.17 FOC
AL2p-18 (antibody, V domains shown, Fab and IgG formats under one id) VH: QVQLVQSGAEVKKPGSSVKVSCKASGYAFSSHWMNWVRQAPGQGLEWMGRIYPGDGDTNYAQKWQGRVTITADESTSTAYMELSSLRSEDTAVYYCARLLRNQPGSSYAMDYWGQGTLVTVSS VL: GVVMTQTPLSLSVTPGQPASISCRTSQSLVHSNGYTYLHWYLQKPGQSPQLLIYKVSNRVSGVPDRFSGSGSGTDFTLKISRVEAEDVGVYYCSQSTRVPYTFGQGTKLEIK	0.229 nM	3.17 nM	2.73 nM	1.3 nM	8.46 FOC	2.06 FOC
